Our source for the STAT4 activity (GAS-promoter luciferase reporter), IL12Rβ1ΔTM co-transfected alongside IL12Rβ1 and IL12Rβ2 and NIH/3T3 migration toward IL12(p40)2, IL12Rβ1ΔTM co-transfected alongside IL12Rβ1 values is patent US20140227324A1.

In the assay the target is mouse IL12Rβ1 (IL12 Receptor Beta 1, transmembrane-containing form) (mouse) (UniProt Q60837). The experiment in a line: cell-based or functional assay.
Chain of UniProt Q60837 (Q60837 20-738): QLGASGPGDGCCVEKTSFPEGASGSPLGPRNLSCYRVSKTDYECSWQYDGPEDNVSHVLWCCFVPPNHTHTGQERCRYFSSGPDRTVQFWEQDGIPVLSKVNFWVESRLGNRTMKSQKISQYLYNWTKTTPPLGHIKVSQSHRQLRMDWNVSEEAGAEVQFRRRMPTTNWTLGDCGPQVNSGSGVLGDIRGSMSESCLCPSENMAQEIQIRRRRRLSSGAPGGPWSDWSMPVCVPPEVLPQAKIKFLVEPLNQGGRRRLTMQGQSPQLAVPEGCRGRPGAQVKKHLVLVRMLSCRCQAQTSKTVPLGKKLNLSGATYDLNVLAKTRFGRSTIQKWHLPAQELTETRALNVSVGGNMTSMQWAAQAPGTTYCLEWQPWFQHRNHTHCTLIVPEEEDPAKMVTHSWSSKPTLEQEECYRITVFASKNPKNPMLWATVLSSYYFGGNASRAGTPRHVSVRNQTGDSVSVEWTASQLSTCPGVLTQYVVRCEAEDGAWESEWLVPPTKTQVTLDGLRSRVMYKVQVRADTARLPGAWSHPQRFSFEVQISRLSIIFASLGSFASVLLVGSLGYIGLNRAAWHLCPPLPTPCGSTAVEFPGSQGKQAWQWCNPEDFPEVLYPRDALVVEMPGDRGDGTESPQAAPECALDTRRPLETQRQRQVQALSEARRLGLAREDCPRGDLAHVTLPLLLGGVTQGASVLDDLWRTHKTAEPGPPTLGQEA

Turning to IL12 (ligand), the STAT4 activity (GAS-promoter luciferase reporter), IL12Rβ1ΔTM co-transfected alongside IL12Rβ1 and IL12Rβ2 worked out at 30 % increase.

IL12(p40)2 (ligand) gave an NIH/3T3 migration toward IL12(p40)2, IL12Rβ1ΔTM co-transfected alongside IL12Rβ1 of 50 % increase.
